# From the supplement of paper PMC12042874
# ± gives the uncertainty stated by the source.
# Assay: amyloid nucleation score (Sup35N fusion, yeast selection) (log enrichment); library NNK3; higher = more nucleation; inactive = no reads after selection
# Procedure, shortened: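 The nucleation score equals the log enrichment of output over input reads from DiMSum, centred on the mode score of non-aggregating sequences. It was computed only for sequences with 100 or more input reads. The reads came from Illumina sequencing of plasmid inserts from psi-negative yeast expressing Sup35N fused to peptides of 20 random codons, induced with 100 μM copper sulfate for 24 hours and grown 7 days at 30°C without adenine and uracil.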
row,Substance,amyloid nucleation score
1,IFMLWPAD,inactive
2,NMFRARGCSDFFLACMNDSA,inactive
3,IVNFACCVWSLYSSREFNML,3.22 ± 0.07
4,MQVILNNVFSTFPLPAGLLR,inactive
5,ANFQWE,inactive
6,AGSCVMFGPSW,inactive
7,STGWSMLVFRTRCYLFSFSG,inactive
8,CCAGSLLLNRVQV,inactive
9,LGMVYICYYISVIVDPYSYS,0.246 ± 0.25
10,QQSTIIFFVWAWMELNPTWK,inactive
11,SGLKVCYNYEDGRMVSLGYH,inactive
12,GLEAPTCPEVFNIGIFSYYH,1.45 ± 0.068
13,FLCLMTTKTKCNF,inactive
14,PSYLKTFRDVLMTVSMYFVC,inactive
15,FRFFFRKSQFYNRSLDNLVR,inactive
16,SRSAY,inactive
17,SSACISCYVSMLWYDVLFKV,0.345 ± 0.23
18,IFNQLDLFCDRTLDGLRDAK,inactive
19,FSLSCPLSDPNVACTY,inactive
20,YSMRRTDIHPVVFRQ,inactive
21,ANYVCKNAVYVMQNNGLVH,inactive
22,HISRYEITVGCLIFRLLTRE,2.46 ± 0.054
23,SDTLYFVCSVTWQRFYKMID,inactive

row,Substance,amyloid nucleation score
1,NYKRTLEESN,1.17 ± 0.18
2,DSKMLCCCCWPVRN,1.42 ± 0.12
3,YLIGYDT,0.366 ± 0.65
4,NQYLLCMLMWNARSGSRSMI,inactive
5,RHEHREGNGDVPLNV,inactive
6,SYSIWSLLEIDF,inactive
7,ISIFWSIEGSNYLHLILHQG,inactive
8,SNLFFSDWTLCCRCIVLVFK,1.6 ± 0.097
9,QHNLRDGMFLNGTYRNDAVR,inactive
10,DGLKNYRWYRFNTLDDGLAG,inactive
11,AKWLEEKLMPAIDVVPGQWL,inactive
12,DPTIVIGDQPIRLRPSVCQM,inactive
13,CLKGNFIVNSNVFKCVLWYS,inactive
14,TRGLWYQHVDHSTFRLKEST,inactive
15,TSRRVCLQ,inactive
16,GKGFCLLVVSSVMRDVGLVQ,inactive
17,YRLRNSS,inactive
18,KRGNSANPS,inactive
19,SCASAFKKVLVCSNCSGRFS,-0.133 ± 0.66
20,GFIVSRERLNVMVLFSVYW,inactive
21,NVIRGGQGLVGPAIMFRDGV,inactive
22,TDTTSIMNWEDRPISSLKVD,inactive
23,QTDMWIDTWKVQPVWIEDEG,inactive

row,Substance,amyloid nucleation score
1,WHKKLGYTSFNRKLGFMASG,0.101 ± 0.45
2,VSPMVALCCFCLKEMNFGVH,2.92 ± 0.069
3,NCFVSICLFFASTFWLGLHN,inactive
4,PTNFD,inactive
5,IKFRDVEGKTLVQKCSQIF,inactive
6,LSTNTKSKTPYNVRMSLTGG,0.49 ± 0.34
7,VCRFYIGFTYWLSCC,inactive
8,CWHCVIDAGFLSQYVRVFYS,inactive
9,PCFLTNEDFYMKFTRN,inactive
10,VQHFRHQSASELV,inactive
11,SHNRCVEWFKWIF,0.885 ± 0.09
12,LVMKQRLIMLYVKLNKAFLA,inactive
13,SWVRTGFL,inactive
14,LAWIVCDCIGQCCTFIVRVW,inactive
15,GFGDRMDNPSVVSK,inactive
16,MINWYGRTNPLCDPGLLRGI,inactive
17,KIGQSFSV,inactive
18,TCYSIERFACY,inactive
19,MVLYYSLILFAHCLKLARHN,inactive
20,KTYFRHTVRNTSSV,1.52 ± 0.11
21,RFSIPMLQRCLWLTGPVCPI,inactive
22,ESRVPRSIKDSL,inactive
23,NRYRTYVCLKDKRRSFKSGM,inactive

row,Substance,amyloid nucleation score
1,LTLNSKVTDM,inactive
2,KTASRCLYCLMKKKDCLPRV,inactive
3,PGRMRVVTVMKMWLTALSLK,inactive
4,HVNSNPHVLASEVK,inactive
5,VIYISCFTVLLVFLVNTPLR,1.2 ± 0.11
6,RVRNDYLPDRHWFSKHRGTK,inactive
7,CHYFNNLACYGSRIEMT,inactive
8,NVYIVFFNFKTQ,2.34 ± 0.058
9,SLFSEMSVYMQDYFWVT,inactive
10,IFNRQFQKSIMRSWLNYESK,0.864 ± 0.13
11,VLEMMWVD,0.144 ± 0.64
12,HICLA,inactive
13,LRATHVSVKGSGRYSVSTFS,inactive
14,NCSSVPVSALFGEGVRKTPS,inactive
15,YHLSSMVTVWKDSVMLAT,inactive
16,WAQLRSTWTSSKAYWLTA,inactive
17,VSLYCVIWIR,1.22 ± 0.094
18,ADVCNAFRVISICLYAIIVL,inactive
19,VCLFICLNDDFLIRRPDCLS,2.08 ± 0.051
20,NLLSSSFLPPGWRSLKLGSS,inactive
21,DRHSTYCLAS,inactive
22,WSCNISYTLLSMGRRLYSRR,inactive
23,LGWLVGSGKVNRVRPGSLNS,inactive

row,Substance,amyloid nucleation score
1,IVSTSYNWDDACYDRTLQGG,inactive
2,RLASGLNPFYVRG,inactive
3,VDYSRALTAYVCIPANFSVP,inactive
4,YQVHWFSNYTTAWMNYVSTV,inactive
5,IYVRAFRWFMNKVTSTAWTI,inactive
6,LQVHILFMAIKYFSMAVV,inactive
7,YCLRSSTGSEVRQWDDDSFK,inactive
8,TRISMSENKVVKREVVATRR,inactive
9,GKFLVFAKVNVMVGCVLLFM,inactive
10,PSVWFFSTETFMVRCPADC,0.549 ± 0.33
11,QAIGIRICSK,inactive
12,FWLHLVPYRFPIVGLCLRG,inactive
13,YVNECFSVSLICCYMLFYN,1.52 ± 0.072
14,ASLRCINFMCWLSQTLGVLL,inactive
15,TSVGYNRIMFQERNIHPELN,inactive
16,CCSRACEFVAVKFNRSSYNL,inactive
17,ECHRGDHINDYVRADNRFSL,inactive
18,GNSLWKSPCYL,inactive
19,GLISPRYATSSWLCQPIINF,inactive
20,YILNITNLWSLCLCRLCRKD,3.08 ± 0.078
21,TLTYTKYYHFNCNRTLYESV,0.665 ± 0.16
22,LGNSFLE,-0.445 ± 0.84
23,DVFHSCLAQFILYTP,inactive

row,Substance,amyloid nucleation score
1,SNESLWVSLIICFVTHWFQI,inactive
2,LFVASLTTCIFWA,2.4 ± 0.054
3,CGRGDSVLSI,inactive
4,MGNYRALCLLLTWLRFLAIE,-0.015 ± 0.96
5,VSGSEFLDFKQLVYTLDAAC,0.481 ± 0.35
6,KCMCNLRSMFASCLYTCVVI,inactive
7,GSVSYLNMTVFFSTVLFIYT,inactive
8,WYSNLMCTWISDDKTWQRIR,inactive
9,VLSFRSRTSKNKFRGAQGVT,inactive
10,VHVSVCRSKGWHDLWRIKCV,inactive
11,EEVAGSTYIISSVVVYSRAG,1.57 ± 0.14
12,RWLVT,inactive
13,SFIIYCPVKKPQIVFHRLPS,2.36 ± 0.056
14,NISSTSFRMGNIIGNEFLVY,inactive
15,DFFLDYL,inactive
16,SVNVHCIREPWVADWTCCRL,1.18 ± 0.16
17,SYGTSGCRRLVLWTYDSKFI,inactive
18,LLRKRHVLNTK,inactive
19,WQTMPGVRDGCAECEIYWG,inactive
20,LWYYCTQEVIARRDEKA,inactive
21,LVMACCNIMKSATMIILYTM,1.26 ± 0.093
22,NFKAT,inactive
23,TSPGFYGWMSNSTSSNDIVA,inactive

row,Substance,amyloid nucleation score
1,WVPAGCKSVMVGGAG,inactive
2,RQGYVADNSTGESDIGDGLG,inactive
3,RELTRRTYAVANYRLSMSRL,inactive
4,VSLFRSLGNLSFSSIWLPSP,inactive
5,KHMSHRCILMLSPYSDRNIM,inactive
6,KDPEVQVRK,inactive
7,RTPPLRTQLESKSIFKEMAR,inactive
8,SWSRYYCLYCG,2.97 ± 0.068
9,NWLDWLGRPPRDIGAWNGSS,inactive
10,WSLNWLMTFGLIYRQFSHLY,inactive
11,RYFSFELKLMLISELYVMAV,inactive
12,SCKVVPCYHVDDMVEL,inactive
13,SGFFSVAGIGWYTIYFCIYR,inactive
14,SITRWFHTVMSIFKFYFEFD,inactive
15,FPSIYLMSD,inactive
16,VLPCVMYNIHPQITCRR,inactive
17,YLICLVWKELLARAHIAELC,0.28 ± 0.2
18,KSESEGFNNSIRPWCMFCVS,inactive
19,HIVIISYFRLLWSCIAPHGA,inactive
20,RVACFQIHGK,inactive
